Assay results reported in PMC3319311 (Nature, 2012).
Numbering of substitutions follows the chain as printed. Names and notes keep the numbering of the source.

Columns and labels:
hOTUB1 F193W = hOTUB1 F193W (human, UniProt Q96FW1 1-271, F193W); experiment: fluorescence polarisation
[1] = biological target: T1, Caenorhabditis elegans OTUB1 (Caenorhabditis elegans, UniProt Q9XVR6); experiment: fluorescence polarisation
T1 sequence: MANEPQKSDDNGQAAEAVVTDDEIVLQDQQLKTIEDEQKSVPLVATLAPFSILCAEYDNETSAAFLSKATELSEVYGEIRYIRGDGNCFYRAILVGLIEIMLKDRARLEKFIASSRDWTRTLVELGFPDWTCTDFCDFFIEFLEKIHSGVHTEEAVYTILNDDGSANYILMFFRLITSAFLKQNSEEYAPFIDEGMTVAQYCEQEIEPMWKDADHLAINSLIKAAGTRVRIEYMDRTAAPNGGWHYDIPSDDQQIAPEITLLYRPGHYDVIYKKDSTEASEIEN

hOTUB1 H217W = hOTUB1 H217W (human, UniProt Q96FW1 1-271, H217W); experiment: fluorescence polarisation
[2] = biological target: T2, human OTUB1 (OTU domain-containing ubiquitin aldehyde-binding protein 1) (human, UniProt Q96FW1 1-271); experiment: fluorescence polarisation
hOTUB1 F193R = hOTUB1 F193R (human, UniProt Q96FW1 1-271, F193R); experiment: fluorescence polarisation
[3] = biological target: T2, human OTUB1 (OTU domain-containing …); experiment: SEC
hOTUB1Δ15 = hOTUB1Δ15 (human, UniProt Q96FW1 16-271); experiment: pull-down
His6-tagged human OTUB1 = His6-tagged human OTUB1 (human, UniProt Q96FW1 1-271); experiment: pull-down
Sequence of His6-tagged human OTUB1 (Q96FW1 whole entry): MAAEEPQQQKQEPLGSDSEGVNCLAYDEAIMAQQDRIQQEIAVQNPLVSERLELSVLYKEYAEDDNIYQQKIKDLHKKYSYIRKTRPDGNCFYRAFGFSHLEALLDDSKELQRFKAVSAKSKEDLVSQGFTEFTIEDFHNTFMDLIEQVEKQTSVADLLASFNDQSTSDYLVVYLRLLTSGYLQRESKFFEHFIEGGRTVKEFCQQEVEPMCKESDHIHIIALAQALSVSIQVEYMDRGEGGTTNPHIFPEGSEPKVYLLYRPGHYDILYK

T2 sequence (Q96FW1 whole entry, the tested form may be a part): as the sequence (Q96FW1 whole entry) above
Sequence of hOTUB1Δ15 (Q96FW1 16-271, stated change not applied): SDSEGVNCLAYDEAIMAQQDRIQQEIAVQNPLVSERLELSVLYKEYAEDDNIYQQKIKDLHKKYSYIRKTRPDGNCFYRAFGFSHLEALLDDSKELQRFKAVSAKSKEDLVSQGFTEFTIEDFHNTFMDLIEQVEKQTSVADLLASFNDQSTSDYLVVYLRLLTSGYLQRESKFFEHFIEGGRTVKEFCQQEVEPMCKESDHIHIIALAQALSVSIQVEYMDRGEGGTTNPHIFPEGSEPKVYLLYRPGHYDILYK
Sequence of hOTUB1 F193W (Q96FW1 whole entry F193W): as the sequence (Q96FW1 whole entry) above, with F193W counted along it
Sequence of hOTUB1 H217W (Q96FW1 whole entry H217W, the tested form may be a part): as the sequence (Q96FW1 whole entry) above, with H217W counted along it
Sequence of hOTUB1 F193R (Q96FW1 whole entry F193R, the tested form may be a part): as the sequence (Q96FW1 whole entry) above, with F193R counted along it

B1: fluorescein-labeled human UBC13 (enzyme)
chain: MAGLPRRIIKETQRLLAEPVPGIKAEPDESNARYFHVVIAGPQDSPFEGGTFKLELFLPEEYPMAAPKVRFMTKIYHPNVDKLGRICLDILKDKWSPALQIRTVLLSIQALLSAPNPDDPLANDVAEQWKTNEAQAIETARAWTRLYAMNNI
modifications: labeled with fluorescein-5-maleimide
binding result (hOTUB1 F193W): binds
Kd [1]: 58.5 µM
binding result (hOTUB1 H217W): binds
Kd [2]: 7.04 µM
binding result (hOTUB1 F193R): binds

B2: human UBC13 (UBE2N) (enzyme)
chain: B1 chain
binding result [3]: binds

B3: UBC13^C87S~Ub oxyester (complex)
chain 1: B1 chain with C87S
chain 2: […]
binding result (hOTUB1Δ15): binds
binding result (His6-tagged human OTUB1): binds
